From EP2842965A1, “Neuromedin U analogs comprising serum albumin binding amino acid residue” (Gubra ApS, priority 2013, dated 2015)
Starred links: 1 amine or outer side, 2 acyl side, 3 side chain; linkers in the order of their positions; H or OH if unused. Residues, ends and D or L forms follow the SMILES beside them. Groups on a side chain read outwards from the residue. No end group written: not given here. *: point of attachment. γGlu = O=C(O)[C@H](CCC(=O)[*:2])N[*:1]; Palmitoyl = CCCCCCCCCCCCCCCC(=O)*

T1: Neuromedin U receptor 1 (UniProt Q9HB89 1-426, limits assumed)
T1 sequence (looked up): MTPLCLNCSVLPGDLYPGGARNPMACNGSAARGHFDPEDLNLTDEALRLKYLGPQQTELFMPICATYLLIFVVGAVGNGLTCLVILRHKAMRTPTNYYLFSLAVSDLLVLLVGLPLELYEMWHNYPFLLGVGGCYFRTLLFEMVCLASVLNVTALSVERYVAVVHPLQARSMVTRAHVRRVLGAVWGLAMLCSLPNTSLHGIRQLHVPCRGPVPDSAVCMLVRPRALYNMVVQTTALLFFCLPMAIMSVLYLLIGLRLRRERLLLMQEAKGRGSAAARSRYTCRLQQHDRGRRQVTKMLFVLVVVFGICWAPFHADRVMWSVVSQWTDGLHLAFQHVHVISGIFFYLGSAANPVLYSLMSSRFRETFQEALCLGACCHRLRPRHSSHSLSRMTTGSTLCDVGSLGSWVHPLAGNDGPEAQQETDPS

B1: SEQ ID NO 17 (NMU analog acylated at K4) (peptide)
peptide: FRVK([γGlu-Palmitoyl])EEFQSPFASQSRGYFLFRPRN-NH2
modifications: N-terminus assumed
SMILES: CCCCCCCCCCCCCCCC(=O)N[C@@H](CCC(=O)NCCCC[C@H](NC(=O)[C@@H](NC(=O)[C@H](CCCNC(=N)N)NC(=O)[C@@H](N)Cc1ccccc1)C(C)C)C(=O)N[C@@H](CCC(=O)O)C(=O)N[C@@H](CCC(=O)O)C(=O)N[C@@H](Cc1ccccc1)C(=O)N[C@@H](CCC(N)=O)C(=O)N[C@@H](CO)C(=O)N1CCC[C@H]1C(=O)N[C@@H](Cc1ccccc1)C(=O)N[C@@H](C)C(=O)N[C@@H](CO)C(=O)N[C@@H](CCC(N)=O)C(=O)N[C@@H](CO)C(=O)N[C@@H](CCCNC(=N)N)C(=O)NCC(=O)N[C@@H](Cc1ccc(O)cc1)C(=O)N[C@@H](Cc1ccccc1)C(=O)N[C@@H](CC(C)C)C(=O)N[C@@H](Cc1ccccc1)C(=O)N[C@@H](CCCNC(=N)N)C(=O)N1CCC[C@H]1C(=O)N[C@@H](CCCNC(=N)N)C(=O)N[C@@H](CC(N)=O)C(N)=O)C(=O)O
B2: SEQ ID NO 5 (NMU analog acylated at K15) (peptide)
peptide: FRVDEEFQSPFASQK([γGlu-Palmitoyl])RGYFLFRPRN-NH2
modifications: N-terminus assumed
SMILES: CCCCCCCCCCCCCCCC(=O)N[C@@H](CCC(=O)NCCCC[C@H](NC(=O)[C@H](CCC(N)=O)NC(=O)[C@H](CO)NC(=O)[C@H](C)NC(=O)[C@H](Cc1ccccc1)NC(=O)[C@@H]1CCCN1C(=O)[C@H](CO)NC(=O)[C@H](CCC(N)=O)NC(=O)[C@H](Cc1ccccc1)NC(=O)[C@H](CCC(=O)O)NC(=O)[C@H](CCC(=O)O)NC(=O)[C@H](CC(=O)O)NC(=O)[C@@H](NC(=O)[C@H](CCCNC(=N)N)NC(=O)[C@@H](N)Cc1ccccc1)C(C)C)C(=O)N[C@@H](CCCNC(=N)N)C(=O)NCC(=O)N[C@@H](Cc1ccc(O)cc1)C(=O)N[C@@H](Cc1ccccc1)C(=O)N[C@@H](CC(C)C)C(=O)N[C@@H](Cc1ccccc1)C(=O)N[C@@H](CCCNC(=N)N)C(=O)N1CCC[C@H]1C(=O)N[C@@H](CCCNC(=N)N)C(=O)N[C@@H](CC(N)=O)C(N)=O)C(=O)O
B3: SEQ ID NO 8 (NMU analog acylated at K13) (peptide)
peptide: FRVDEEFQSPFAK([γGlu-Palmitoyl])QSRGYFLFRPRN-NH2
modifications: N-terminus assumed
SMILES: CCCCCCCCCCCCCCCC(=O)N[C@@H](CCC(=O)NCCCC[C@H](NC(=O)[C@H](C)NC(=O)[C@H](Cc1ccccc1)NC(=O)[C@@H]1CCCN1C(=O)[C@H](CO)NC(=O)[C@H](CCC(N)=O)NC(=O)[C@H](Cc1ccccc1)NC(=O)[C@H](CCC(=O)O)NC(=O)[C@H](CCC(=O)O)NC(=O)[C@H](CC(=O)O)NC(=O)[C@@H](NC(=O)[C@H](CCCNC(=N)N)NC(=O)[C@@H](N)Cc1ccccc1)C(C)C)C(=O)N[C@@H](CCC(N)=O)C(=O)N[C@@H](CO)C(=O)N[C@@H](CCCNC(=N)N)C(=O)NCC(=O)N[C@@H](Cc1ccc(O)cc1)C(=O)N[C@@H](Cc1ccccc1)C(=O)N[C@@H](CC(C)C)C(=O)N[C@@H](Cc1ccccc1)C(=O)N[C@@H](CCCNC(=N)N)C(=O)N1CCC[C@H]1C(=O)N[C@@H](CCCNC(=N)N)C(=O)N[C@@H](CC(N)=O)C(N)=O)C(=O)O
B4: SEQ ID NO 11 (NMU analog acylated at K9) (peptide)
peptide: FRVDEEFQK([γGlu-Palmitoyl])PFASQSRGYFLFRPRN-NH2
modifications: N-terminus assumed
SMILES: CCCCCCCCCCCCCCCC(=O)N[C@@H](CCC(=O)NCCCC[C@H](NC(=O)[C@H](CCC(N)=O)NC(=O)[C@H](Cc1ccccc1)NC(=O)[C@H](CCC(=O)O)NC(=O)[C@H](CCC(=O)O)NC(=O)[C@H](CC(=O)O)NC(=O)[C@@H](NC(=O)[C@H](CCCNC(=N)N)NC(=O)[C@@H](N)Cc1ccccc1)C(C)C)C(=O)N1CCC[C@H]1C(=O)N[C@@H](Cc1ccccc1)C(=O)N[C@@H](C)C(=O)N[C@@H](CO)C(=O)N[C@@H](CCC(N)=O)C(=O)N[C@@H](CO)C(=O)N[C@@H](CCCNC(=N)N)C(=O)NCC(=O)N[C@@H](Cc1ccc(O)cc1)C(=O)N[C@@H](Cc1ccccc1)C(=O)N[C@@H](CC(C)C)C(=O)N[C@@H](Cc1ccccc1)C(=O)N[C@@H](CCCNC(=N)N)C(=O)N1CCC[C@H]1C(=O)N[C@@H](CCCNC(=N)N)C(=O)N[C@@H](CC(N)=O)C(N)=O)C(=O)O
B5: SEQ ID NO 14 (NMU analog acylated at K6) (peptide)
peptide: FRVDEK([γGlu-Palmitoyl])FQSPFASQSRGYFLFRPRN-NH2
modifications: N-terminus assumed
SMILES: CCCCCCCCCCCCCCCC(=O)N[C@@H](CCC(=O)NCCCC[C@H](NC(=O)[C@H](CCC(=O)O)NC(=O)[C@H](CC(=O)O)NC(=O)[C@@H](NC(=O)[C@H](CCCNC(=N)N)NC(=O)[C@@H](N)Cc1ccccc1)C(C)C)C(=O)N[C@@H](Cc1ccccc1)C(=O)N[C@@H](CCC(N)=O)C(=O)N[C@@H](CO)C(=O)N1CCC[C@H]1C(=O)N[C@@H](Cc1ccccc1)C(=O)N[C@@H](C)C(=O)N[C@@H](CO)C(=O)N[C@@H](CCC(N)=O)C(=O)N[C@@H](CO)C(=O)N[C@@H](CCCNC(=N)N)C(=O)NCC(=O)N[C@@H](Cc1ccc(O)cc1)C(=O)N[C@@H](Cc1ccccc1)C(=O)N[C@@H](CC(C)C)C(=O)N[C@@H](Cc1ccccc1)C(=O)N[C@@H](CCCNC(=N)N)C(=O)N1CCC[C@H]1C(=O)N[C@@H](CCCNC(=N)N)C(=O)N[C@@H](CC(N)=O)C(N)=O)C(=O)O

Target: T2, Neuromedin U receptor 2 (NMUR2) (Homo sapiens, UniProt Q9GZQ4)
T2 construct: expressed in transfected cells; host or cells: HEK293 cells, transient calcium phosphate transfection; the empty-vector control is pcDNA3
Test: Functional assay (IP3 SPA-ysi assay) in HEK293 cells transfected with NMUR2
Format: cell-based
Details: HEK293 cells transiently transfected with NMUR2; head says cAMP, method describes IP3 SPA readout
Description: All compounds were dissolved in dimethyl sulfoxide (DMSO), and then water was added (total DMSO conc. was 80%). The stock concentration was 1 mM for all the compounds. Stocks were alliquoted and frozen -20°C.
The day before each assay a new standard row was prepared by dilution of the stock solution in assay buffer (1 mM acetic acid + 0.1% bovine serum albumin (BSA)). The following concentrations were prepared (depending on the ligand potency): 10^-5, 10^-6, 10^-7, 10^-7.5, 10^-8, 10^-8.5, 10^-9, 10^-10, 10^-11, 10^-12 M.
Cell cultures: The HEK293 cells are grown in (DMEM31966 glutamax supplemented with 10% FBS (fetal bovine serum) and 1% penicillin G and streptomycin) and incubated at 37°C with 10% CO2 in a humidified atmosphere. The cells were split as follows. HEK293 cells approximately 80% confluent was used. The cells were removed from the bottom of the bottle by removing the media (DMEM31966 glutamax supplemented with 10% FBS and 1% penicillin G and streptomycin), rinsed with 5 mL phosphate buffered saline (PBS) and shaken gently. The PBS was removed and cells were released from the bottom with trypsin (1-2 mL) and incubated for 2-3 min. The flasks were then turned gently to ensure complete release of the cells from the bottom. Then media was added to the cells, (5-8 mL was used to rinse the cells of the bottom, this process was repeated approximately 4 times using the same media). Cell suspension was then transferred to a new bottle (approximately 4 × 10^6 cells per 175 cm^2 flask) and 20 mL media was added. Cells were incubated at 37°C with 10% CO2 in a humidified atmosphere.
Transfection of cells: HEK293 cells were seeded out at the density of 8 × 10^6 cells per 175 cm^2 flask 1 day prior to the transfection. Before transfection of cells, the culture medium was aspirated and half of the standard volume was added. 40 µg receptor-containing plasmid (Neuromedin U receptor 1 (NMUR1) or Neuromedin U receptor 2 (NMUR2)) or "empty" vector plasmid (pcDNA3), as a negative control, was mixed with 60 µL […] CaCl2 and Tris-EDTA (TE) buffer (10 mM tris(hydroxymethyl)aminomethane hydrochloride (Tris HCl), 1 mM ethylenedinitrilotetraacetic acid (EDTA), pH 7.5) to a total volume of 480 µL. The mixture was added drop-wise to another tube containing 480 µL 2 × HEPES buffered saline (HBS buffer) (280 mM NaCl, 50 mM 4-(2-Hydroxyethyl)piperazine-1-ethanesulfonic acid (HEPES), 1.5 mM NaHPO4, pH 7.2) and left for 45 min at room temperature for DNA precipitation. Afterwards, the precipitate was added carefully to the cells and cells were incubated for 5 hours at normal culture conditions. The transfection was stopped by change of the DNA-containing medium with 20 mL of fresh cell culture medium.
Seeding of the cells in 96 well plates: One day after transfection, cells were harvested using trypsin as described above. The cells were seeded in a poly-D-lysine coated clear 96 well plate. 100 µL cell suspension 350.000 cells/mL was added. 3H-myo-inositol (5µL/mL) was added to each well yielding a concentration of 35000 cells/well. The cells were incubated overnight before assay procedure the following day.
IP3 SPA-ysi assay: The media was removed and the plates were washed with 200 µL of Hank's balanced salt solution (HBSS) (Gibco, Life Technologies). 100 µL of HBSS/10 mM LiCl was added and the plates were incubated 15 min at 37°C. 5 µL ligand was added to each well and the plate was incubated at 37°C for 70-90 min (incubation time was approximately 1 h and 16 min for all plates). The plates were placed on ice and 50 µL formic acid (10 mM) was added to each well. The plates was left on ice for at least 30 min. 20 µL was then transferred to a white 96 well plate and 80 µL yttrium silicate (YSi) SPA-beads RPNQ0010 (Perkin Elmer) solution (0.0125 g/mL) is added to each well. The plates were sealed and shaken on high speed for 30 min, then centrifuged for 5 min at 1500 rpm and counted with 8 hours delay in the top counter. […]

T2 sequence (Q9GZQ4 whole entry): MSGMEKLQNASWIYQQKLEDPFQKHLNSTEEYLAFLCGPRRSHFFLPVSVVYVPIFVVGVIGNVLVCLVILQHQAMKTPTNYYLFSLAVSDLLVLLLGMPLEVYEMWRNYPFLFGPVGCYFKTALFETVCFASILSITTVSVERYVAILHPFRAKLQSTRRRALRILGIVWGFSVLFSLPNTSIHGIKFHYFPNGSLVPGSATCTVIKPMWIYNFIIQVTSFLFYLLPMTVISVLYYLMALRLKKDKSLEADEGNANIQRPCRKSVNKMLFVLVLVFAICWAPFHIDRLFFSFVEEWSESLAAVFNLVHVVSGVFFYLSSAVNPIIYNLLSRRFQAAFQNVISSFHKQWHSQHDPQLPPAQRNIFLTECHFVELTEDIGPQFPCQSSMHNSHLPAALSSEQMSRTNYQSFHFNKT

Compared with `CCCCCCCCCCCCCCCC(=O)N[C@@H](CCC(=O)NCCCC[C@H](NC(=O)[C@H](CCC(N)=O)NC(=O)[C@H](Cc1ccccc1)NC(=O)[C@H](CCC(=O)O)NC(=O)[C@H](CCC(=O)O)NC(=O)[C@H](CC(=O)O)NC(=O)[C@@H](NC(=O)[C@H](CCCNC(=N)N)NC(=O)[C@@H](N)Cc1ccccc1)C(C)C)C(=O)N1CCC[C@H]1C(=O)N[C@@H](Cc1ccccc1)C(=O)N[C@@H](C)C(=O)N[C@@H](CO)C(=O)N[C@@H](CCC(N)=O)C(=O)N[C@@H](CO)C(=O)N[C@@H](CCCNC(=N)N)C(=O)NCC(=O)N[C@@H](Cc1ccc(O)cc1)C(=O)N[C@@H](Cc1ccccc1)C(=O)N[C@@H](CC(C)C)C(=O)N[C@@H](Cc1ccccc1)C(=O)N[C@@H](CCCNC(=N)N)C(=O)N1CCC[C@H]1C(=O)N[C@@H](CCCNC(=N)N)C(=O)N[C@@H](CC(N)=O)C(N)=O)C(=O)O` [SEQ ID NO 11] (H-FRVDEEFQK([γGlu-Palmitoyl])PFASQSRGYFLFRPRN-NH2), “H-FRVDEEFQSPFASQSRGYFLFRPRN-NH2 [Human NMU, reference compound]” is 22-fold lower in EC50: 94.3 nM for the first, 4.26 nM for the second.

Target: T1, Neuromedin U receptor 1
Test: cell-based or functional assay
Details: not given

First: FRVDEEFQSPFASQSRGYFLFRPRN-NH2 [Human neuromedin U]
Second: B1
The “NMUR1 cAMP EC50” value of the first is 18-fold lower: 2.57 nM for the first, 45.5 nM for the second.

Going from B2 to B3, the “NMUR1 cAMP EC50” value falls from 195 nM to 114 nM (1.7-fold).

B4 and B5 are within 1.5-fold of each other in “NMUR1 cAMP EC50” value: 74 nM for the first, 51.5 nM for the second.
